Here are results for one substance from patent US20040005648A1, “PYK2 related products and methods” (Sugen, Inc., priority 1994, published 2004).

This experiment has as its target Kv1.2-HA (delayed rectifier-type potassium channel Kv1.2 with HA tag) (UniProt P63142). In words: cell-based or functional assay.

In the case of PYK2 (wild type, full length), the inhibition of outward current in Xenopus oocytes, 8 min after the addition of 100 nM PMA turned out to be 95%.
